Measurements: a protein production outcome set (Wang et al. 2014)

Assay: label from the status in PepcDB records
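Further: failed if final PepcDB status was selected cloned or expressed and not failed if soluble or beyond.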

Row | Sequence | protein production
1 | MSHVELQPGFDFQQAGKEVLAIERECLAELDQYINQNFTLACEKMFWCKGKVVVMGMGKSGHIGRKMAATFASTGTPSFFVHPGEAAHGDLGMVTPQDVVIAISNSGESSEITALIPVLKRLHVPLICITGRPESSMARAADVHLCVKVAKEACPLGLAPTSSTTATLVMGDALAVALLKARGFTAEDFALSHPGGALGRKLLLRVNDIMHTGDEIPHVKKTASLRDALLEVTRKNLGMTVICDDNMMIEGIFTDGDLRRVFDMGVDVRQLSIADVMTPGGIRVRPGILAVEALNLMQSRHITSVMVADGDHLLGVLHMHDLLRAGVV | failed
2 | MRAGVREVIDDSSERTLQQVIERAFLRTKGAIIRQKRVFGFVSAKGGDGGSCIAANFAFALSQEPDIHVLAVDISLPFGDLDMYLSGNTHSQDLADISNASDRLDKSLLDTMVQHISPSLDLIPSPATFEKIVNIEPERVSDLIHIAASFYDYIIVDFGASIDHVGVWVLEHLDELCIVTTPSLQSLRRAGQLLKLCKEFEKPISRIEIILNRADTNSRITSDEIEKVIGRPISKRIPQDEDAMQESLLSGQSVLKVAPKSQLSKTIVDWALHLNGVSRPNKRSIWERLKIK | not failed
3 | MVQHHNLYELSPMDTGWTICVMVLRINKKFLNPNAFELRFVLDDEWDTQIEATIRPRFSPFYFDRIEKNQWKTISTFLVRPNCEPIRTTPHEFRILFMDHTIITSSTS | failed
4 | MEAIDQLVGQWQKDGLSPSQVAEKFSKCVLYVTCEPCIMCASALSFLGIKEVYYGCPNDKFGGCGSILSLHLGSEEAQRGKGYKCRGGIMAEEAVSLFKCFYEQGNPNAPKPHRPVVQRERT | failed
5 | MCIGMDIRDFFAQSAGRWFSQRTSHHLAFKQTESGKSQLTIELLSVDDPAVIALCQQYDMDPAWAVCGARVSWDGTMEWDNEKHEGSTVLVPIMDQGSRMEGKLLREMGYAEKAPVAGRFSMGSDGALTLITEYETIYSEERLWFASPNLRLRTSILKRFGGFSMASFCSEIRLGVTQPANSLEHHHHHH | not failed
6 | MTDPLIPVDTYLVDSLPEVWFGAVVFALGMYIVLDGFDFGIGMLYATRTDEHERETFLAAFGPVWDANEVWIVAFGTMLLAAFPRVYSRLLADNYLLALGFVVALVFRGLGPELREQREDERWKRYTDYAFVGGSVFAPLLLGMLAGRWLFAGATLPVVLTGVGLVAVSIVTGAAFLAAKTDSGLASELRSYGVGATVAYLGGVVVLLGTVVATDAGGAASAVLSLPVAAVVALSIVAGLGGSVLARRGRYRAWLASALALPTLLTLLVAVLLYPTVYPPTGLLVREAVVSPLALNLVTVLGFPVLLLVLWYFKFLYGVFSGPIEGEGYGG | failed
7 | MSEYEVLLATKRRTPPDSSAGRSSQIWRRAFGHWLQGRNGSSSLSNQNEPRPCRVRRNAGSHGPPVCIPFALALPPRMDVRLPSRLAPPLGAVLLCTLLMGGPPPTVASPAVLFPSADTTSPRARRLLIQGTTEAQLGDYEEAISHFEAALEQVPEAPVLLLALADAHEAQGALSTALFYARRAQTQGSPRPSPYRRLAEMQRAAGDPAAALRTYQQLLDHVPNANDAHRARAAIQADLGRTKGAIQSYEIYLQRADSPPIDVYRRLLSLYRKTGDKDGVETTLRTLVERRPTVRSYQRRLGEYYADEGRPRKALALLAPLGRQFPNDEALRRQVQRLARQTGQSIASPTQRAQSDSTRSQSASPDAPLRRARSMYDAATASSPPDTAQLRAAAGVLRDVLHQSPDTEAALSLQAELYQAWGRPEEAGRAMERLLDLTPRAPGRWVRTAQTYQRAHLYARAAGVAEEGFLLFPGHMPLARTAAFARLRTGDPAKARRHFQDALSLLGDSTGAAAEAVLHAGLGLAKSRLGRPREADDALKNARALAPQHPQVVRLYARSLARQDDRLDQALDLAEQAVENAPDSPSAHRALGQVQFRRDELEAARRHLRIALDAGGPSATLLERLGDVEAALGNDTAAQTYWQRALDRNPDRSSLREKLAVPANS | failed
8 | KSTVEKSTVGQKVAIVREDTGTIAELAEKALGNMVDIVYAGSDLKEAEEAVKKEKAPAIIVIPKGFSQSLESGEKARLEIVWYLRGTGLSEAVSTGTISSLIESLKVQLASFLLNDPKKAQLLFDPLEIVQHTYLRGSLFKNHSPEAIMNVFYSQN | not failed
9 | MDNTRSVYGIDLGTTYSCIAQVDKFDQAIVLRNFEGDATTPSAVYFEDMDHVVVGKEAKGMLATEPTKTAVFIKRHIGVDDSFDKNTNEFPYHYDPTEISAFILKKLVKDANDLGDNPEPIKDVVITCPAYFGTKERMQTKQAGEIAGLNVLSIINEPTAAAISYGVKTDQKKTVLVYDLGGGTFDVTLINVNGGAIKVIATGGDHHLGGVDWDTALAEYMLAAFNEQNNTSYSFEDRLDLKYELLLLAEDKKKVLTAKQTAKATYQYEGNSARIEISRELFNSLTERKLDETIDATKKVIAIAKEKGYNNIDEILLVGGSSRMPQIKERVDKEFNCDAKLTDPDECVAKGAAIYAMNAAYSQAVRDYEEGESDDKPAPLRGDRTTVVNVTSKTYGTDVIIEGQSMVQNLIFANSSLPTKRIETFTTSIPNQRGVSVKVFESDFTNMETESIVEERFCTLIDDHTLKLSKDWPQGTQISVTYQIDQEGILHGLAYVENDKLEFDLKITGVKCEEELRKSKAIIDKASVE | failed
10 | MEKAGMHRTLNYRLRFDIPLVGKDCEYALVQDLPASVYISTDELDDLQRLKRLNAIYPKFVNIEVATERAQPFSVLLRGTPKITESLALPVHFRYHAPSDKRLAATVAIPLPELYLNCPMADSALIENELVARPDKLYCLNAPESRFDENHIKDGQPTTMANLERCNWRRVHVDCQLKMPLRAEIPVGHASAYGPVLCGTILLGWSLALWTIIHSMANTRRINQRLNEQRLLQQKVK | failed
11 | MEIILNSGGTFVILAAVVGFFMAWGIGANDVANAMGTSVGSKALTIKQAIIIAMIFEFAGAYLAGGEVTSTIRKGIIDASYFVDSPELLVYGMISALFAAATWLLIASALGWPVSTTHSIVGAIVGFAAVGVSTDAVEWGKVVGIVGSWIITPLISGIIAFIIFNSAQKLIFDTDKPLQQAKRWVPAYMFLAGFVLSLVTIKKGLKHIGLENVNLGFVNFEIKGAGGFYLAAIVAIIVAIIGKFFISRLKFDENLAKEAHYVNVEKVFAILMIVTACAMAFAHGSNDVANAIGPLAAVVSIVEHDGQIAAKSAIAWWILPLGGFGIVAGLALFGHKVIATIGQGITHLTPSRGFAAELAAASTVVIASGAGLPISTTQTLVGAVLGVGMARGIAAINLGVVRNIVVSWVITLPVGAGLSIVFFWIMQATFS | failed
12 | MELIRFSISIPSKLLEKFDQIIEEIGYENRSEAIRDLIRDFIIRHEWEVGNEEVAGTITIVYNHDEGDVVKALLDLQHEYLDEIISSLHVHMDEHNCLEVIVVKGEAKKIKMIADKLLSLKGVKHGKLVMTSTGKELV | not failed
13 | MLVQKNEAFLWLHFYLISNFIVVIMQMFILVMYYLIIVDHSFVELNEQVNPLFSFLLFVFHSDLSFFPVLVQLIF | failed
14 | MLEGEFLSVAELKDLTLSLASKFLNNLLASKLLVSKQLFIDRKKELGLLEERLKSGKAQFIVIYGRRRVGKTALILEFLRRHGGLYLLARETSEIENLERFSLRLAEYFNDSFLKKNPLRSLDAFFEYLSTKAEKPFIIAIDEFPYLVKGNKALPSILQEYWEMKLSKKKIFLIVSGSSVSMTERLLGYKSPLYGRRTAQLKLKPLDFFNAREFLPKYSLEDFVRVYGILGGTPAYLLEFSDEKSLEENLKSYFRVDSLLYGDALFILREELDEPRNYFAIMEAIARGNTTLGEIVNETGLERATVGKYLSVLIDLDLVRREVPITASRKSRKGRYYIADNYFAFWFRYVYPNADLIESGNGELLVDTVMDDIDHYTGEVFEGVAKEFLLRLNKSERLPFRFSRVGRWWYKNEEIDLVALNEREKKVLFIEVKWKDLSKREARGILKDLKRKAKLVGLDEWGKHYGLVAKSVRGKDEIKEEGWLAWDLEDIHRMAFLEHHHHHH | failed
15 | MQKPAVTVMVKAARLAGNVLLRGINKLDALNVVQKGRMDYASEVDADAEKVIIKELKRGYPEYAVFGEEGGVQGGKSGRYTWVIDPLDGTSNYLRGFPHYCVSIALVENGEPTDAVIFDPLRNELFTASRGAGAVLNDRRIRIAERKDLEGAMVHTGFPPRERARASAQLKCVDALLVQAEDVRRTGSAALDLAYVACGRADAYFEAGVKAWDIAAGVLLVREAGGRVCDYKGATPPRMDNMGPETQQIVAGNIKISDALQKVIVNTGYAREFDAKF | failed
16 | AELQQTEKASAKKQDKAEIRNVIVMIGDGMGTPYIRAYRSMKNNGDTPNNPKLTEFDRNLTGMMMTHPDDPDYNITDSAAAGTALATGVKTYNNAIGVDKNGKKVKSVLEEAKQQGKSTGLVATSEINHATPAAYGAHNESRKNMDQIANSYMDDKIKGKHKIDVLLGGGKSYFNRKNRNLTKEFKQAGYSYVTTKQALKKNKDQQVLGLFADGGLAKALDRDSKTPSLKDMTVSAIDRLNQNKKGFFLMVEGSQIDWAAHDNDTVGAMSEVKDFEQAYKAAIEFAKKDKHTLVIATADHTTGGFTIGANGEKNWHAEPILSAKKTPEFMAKKISEGKPVKDVLARYANLKVTSEEIKSVEAAAQADKSKGASKAIIKIFNTRSNSGWTSTDHTGEEVPVYAYGPGKEKFRGLINNTDQANIIFKILKTGK | failed
17 | MDLIGLRIRNIRKIKQLTLKEAAKGIISVPYLANIENGVKVASFETLMHIAKRLEIPEEALLIGNEDLNKELLQELKQIFDLLVFSNTKEAGDRLDQIAANVDLLCESPVIELSFYWLQAGFYYKTWEFSKAREIERKYLNSNEKRVVESFPPDLLSYYYYGQAVKHSHATCDYQLAVEYWEKSIDLTDKAAFQVVFQVGLCINYICLNNYEPALKHIECAWNLIKRFPSKDQERITAILYLYGYINFQIGFMTEAKRKFEEVLVFFNMYPEAKTMYSFLVRFKLAEIERVEGNHELFDEKIVCLYEELMAHEASEIGFNNNDYLVITELMVIFAEQGSVLEASNLLAIINKVTEQVMEINFFVTYTETLLLYHQNKQSSYEKKMLDLLKKIDESNDPALIERVKKHASKHFADSTKYKMAYNILA | failed
18 | MELPAVGEHVFAVESIEKKRIRKGRVEYLVKWRGWSPKYNTWEPEENILDPRLLIAFQNRERQEQLMGYRKRGPKPKPLVVQVPTFARRSNVLTGLQDSSTDNRAKLDLGAQGKGQGHQYELNSKKHHQYQPHSKERAGKPPPPGKSGKYYYQLNSKKHHPYQPDPKMYDLQYQGGHKEAPSPTCPDLGAKSHPPDKWAQGAGAKGYLGAVKPLAGAAGAPGKGSEKGPPNGMMPAPKEAVTGNGIGGKMKIVKNKNKNGRIVIVMSKYMENGMQAVKIKSGEVAEGEARSPSHKKRAADERHPPADRTFKKAAGAEEKKVEAPPKRREEEVSGVSDPQPQDAGSRKLSPTKEAFGEQPLQLTTKPDLLAWDPARNTHPPSHHPHPHPHHHHHHHHHHHHAVGLNLSHVRKRCLSETHGEREPCKKRLTARSISTPTCLGGSPAAERPADLPPAAALPQPEVILLDSDLDEPIDLRCVKTRSEAGEPPSSLQVKPETPASAAVAVAAAAAPTTTAEKPPAEAQDEPAESLSEFKPFFGNIIITDVTANCLTVTFKEYVTV | failed
19 | MSLTPWLSIVGISEEGWLALTPIAQQCILQADILVGSDRHFDLLPSLPGAEQWRWGSPFSATITQILERRGQSICILASGDPMCYGVGSLLAQRLPLTELQILPAPSAFSLACSRLGWALPEVETLSLCGRDPALLNALLYPGAKILALSADRSTPATIAEQLCQQGWGSSRLTVLEHLGGPKERKISEIAEHWSQPTIASLNTVAIECHARDRDLIVPPRLTGLPDAAYHHDGQLTKREVRAITLAALAPLPGQLLWDVGAGCGSIGIEWMRSDRRCRAIAIEQHPQRLQIITQNAIALGVPNLQVVAGSAPATLSGLPQPDAIFIGGGVTAPGVLDQCWQALPMGGRLVVNAVTLESEQVVLAGQQRWGGDLIRVAVQRAEPIGRFLGWKSLAPITQWTVKKTALEHHHHHH | not failed
20 | MQLESLYQFLYSVVMSYLVSLKYVSFVLISVILVFRKIIRTVKGGRFRRYSIFIPPILYILFSIAVSYGTSLLGIVLSLIAFVFGIYISFHTTRSIVFFSKNNILYYKRPGWVVAIWSLAFLTRLALILFFPSFNGDLFTVLLFLASGLIIGESFWIVRKNREILSTVRMPKIHL | failed
